Assay results as given in patent US20080267953A1 (Kyowa Kirin, published 2008).

Tests used:
[1] = biological target: T1, human PERP with C-terminal myc-His tag expressed on CHO/DG44 cells from plasmid pcPERPmH (human, UniProt Q96FX8 1-193); assay: flow cytometry on CHO/PERP (KC1359)
T1 construct: The gene was cloned from plasmid HEMBA 1006335 (GenBank AK 074585); also called PERP/CHO cell; CHO/hPERP
Experimental: (§1) Binding activity of an anti-PERP humanized antibody having no consensus sequence of an N-linked sugar chain purified in (5) of Example 3 to CHO/PERP (KC1359) expressing a polypeptide encoded by the PERP gene, or PC9 cells used in (1) of Example 1 was measured using a fluorescent antibody technique as described below.
(§2) CHO/PERP or PC9 cells (2 to 3×10⁵ per well) were dispensed in a 96-well U-shaped plate, a modified antibody wherein the anti-PERP humanized antibody having no consensus sequence of an N-linked sugar chain was diluted in eight stages in a 2-fold dilution starting from 10 μg/ml using a buffer for FCM (1% BSA-PBS, 0.02% EDTA and 0.05% NaN₃) was dispensed in an amount of 100 μL/well or the modified antibody diluted in eight stages in a 5-fold dilution starting from 10 μg/ml and a reaction was carried out on ice for 30 minutes. After washing with a buffer for FCM once, a solution in which a PE-labeled anti-human IgG (H+ L) antibody (manufactured by Beckmann-Coulter) diluted 50-fold with a buffer for FCM was added thereto in an amount of 100 μL/well. After the mixture was allowed to react for 30 minutes on ice protecting from the light, it was washed with a buffer for FCM twice and fluorescence intensity was measured using a flow cytometer. As a positive control, the anti-PERP human chimeric antibody KM3481 described in Reference Example 2 or the anti-PERP human chimeric antibody KM3821 (KM3821) having no consensus sequence of an N-linked sugar chain produced in Example 1 was used.

[2] = biological target: T2, polypeptide encoded by the human PERP gene, endogenously expressed on human cancer cell lines (PC9 / PC-9, … (human, UniProt Q96FX8 1-193)); assay: flow cytometry on PC-9 cells
T2 construct: Four-transmembrane protein of 193 amino acids; also called hPERP; THW
Experimental: as §1
as §2, with “As a positive control, the anti-PERP human chimeric antibody KM3481 described in Reference Example 2 or the anti-PERP human chimeric antibody KM3821 (KM3821) having no consensus sequence of an N-linked sugar chain produced in Example 1 was used.” left out

[3] = biological target: T2, polypeptide encoded by the human PERP …; assay: flow cytometry on PC9 cells expressing PERP
[4] = biological target: T1, human PERP with C-terminal myc-His tag …; assay: FMAT fluorescent cell staining, hybridoma culture supernatant, PERP/CHO against CHO/DG44 cells
Experimental: With regard to the cells for the assay, PERP/CHO cells and CHO/DG44 cells produced in (1) of Reference Example 1 were used. The cells which were cultured on an Iscove's Modified Dulbecco's medium containing 10% fetal bovine serum (manufactured by Invitrogen) for 2 to 3 days and peeled off with a Tripsin-EDTA solution (manufactured by Invitrogen) were suspended on the same medium, seeded onto a black 96-well plates for FMAT at 7×10³ cells/100 μL medium/well and cultured overnight. Mouse anti-serum to be immunized or cultured supernatant of hybridoma cells was dispensed into the plate at 5 μL/well as a primary antibody, and ALEXA 647-labeled anti-mouse immunoglobulin G (H+ L) (manufactured by Molecular Probe) was dispensed at 50 μL/well as a secondary antibody, and the plate was allowed to stand for 4 hours under shading the light. Wavelength of 650 to 685 nm excited by laser beam of 633 nm He/Ne was measured by an FMAT 8100 HTS system (manufactured by Applied Biosystem).

[5] = biological target: T2, polypeptide encoded by the human PERP …; assay: flow cytometry on Colo 205 cells

Binder	binding result [1]	binding result [3]	other results
anti-PERP humanized antibody HV4LV4 (antibody, V domains shown) VH: QVQLQESGPGLVKPSQTLSLTCTVSGFSISTEYAWNWIRQFPGKGLEWIGYIGYTGRTNYAPSLKSRITISRDTSKNQFSLQLSSVTAEDTATYYCTRMDYWGQGTLVTVSS VL: DIQMTQSPSSLSASVGDRVTITCSASSSVSYMHWFQQKPGKAPKLWIYSTSNLASGVPSRFSGSGSGTDYTLTISSMQPEDFATYYCQQRSSYPPTFGQGTKVEIK	binds	–	binding result [2]: binds
anti-PERP humanized antibody HV8LV7 (antibody, V domains shown) VH: QVQLQESGPGLVKPSQTLSLTCTVSGFSITTEYAWNWIRQFPGNRLEWMGYIGYTGRTNYAPSLKSRITISRDTSKNQFSLQLSSVTAEDTATYYCTRMDYWGQGTLVTVSS VL: DIVMIQSPSSLSASVGDRVTITCSASSSVSYMHWFQQKPGKSPKLWIYSTSNLASGVPSRFSGSGSGTDYTLTISSMQPEDFATYYCQQRSSYPPTFGQGTKVEIK	binds	–	–
anti-PERP humanized antibody HV4LV3 (antibody, V domains shown) VH: QVQLQESGPGLVKPSQTLSLTCTVSGFSISTEYAWNWIRQFPGKGLEWIGYIGYTGRTNYAPSLKSRITISRDTSKNQFSLQLSSVTAEDTATYYCTRMDYWGQGTLVTVSS VL: DIQMTQSPSSLSASVGDRVTITCSASSSVSYMHWYQQKPGKAPKLWIYSTSNLASGVPSRFSGSGSGTDYTLTISSMQPEDFATYYCQQRSSYPPTFGQGTKVEIK	binds	–	–
anti-PERP humanized antibody HV8LV0 (antibody, V domains shown) VH: QVQLQESGPGLVKPSQTLSLTCTVSGFSITTEYAWNWIRQFPGNRLEWMGYIGYTGRTNYAPSLKSRITISRDTSKNQFSLQLSSVTAEDTATYYCTRMDYWGQGTLVTVSS VL: DIQMTQSPSSLSASVGDRVTITCSASSSVSYMHWYQQKPGKAPKLLIYSTSNLASGVPSRFSGSGSGTDFTLTISSLQPEDFATYYCQQRSSYPPTFGQGTKVEIK	–	–	binding activity relative to KM3821 [1]: ~0.2 fraction of the binding activity of KM3821
anti-PERP humanized antibody HV4LV7 (antibody, V domains shown) VH: QVQLQESGPGLVKPSQTLSLTCTVSGFSISTEYAWNWIRQFPGKGLEWIGYIGYTGRTNYAPSLKSRITISRDTSKNQFSLQLSSVTAEDTATYYCTRMDYWGQGTLVTVSS VL: DIVMIQSPSSLSASVGDRVTITCSASSSVSYMHWFQQKPGKSPKLWIYSTSNLASGVPSRFSGSGSGTDYTLTISSMQPEDFATYYCQQRSSYPPTFGQGTKVEIK	binds	–	–
anti-PERP CDR-modified antibody ver.1 (antibody, V domains shown, Human chimeric antibody of IgG class; also called pKANTEX3411 CDR v1) VH: DVQLQESGPGLVKPSQSLSLTCTVTGFSITTEYAWNWIRQFPGNRLEWMGYIGYTGRTSYSPSLKSRISITRDTSKNQFFLQLNSVTTEDTATYYCTRMDYWGQGTSVTVSS VL: QIVLIQSPVIMSASPGEKVTITCSASSSVSYMHWFQQKPGTSPKLWIYSTSNLASGVPARFSGSGSGTSYSLTISRMEAEDAATYYCQQRSSYPPTFGAGTKLELK	–	binds	–
anti-PERP mouse monoclonal antibody KM3411 (hybridoma FERM BP-8643) (antibody, V domains shown, Mouse IgG1; also called anti-PERP mouse antibody KM3411) VH: DVQLQESGPGLVKPSQSLSLTCTVTGFSITTEYAWNWIRQFPGNRLEWMGYIGYTGRTNYSPSLKSRISITRDTSKNQFFLQLNSVTTEDTATYYCTRMDYWGQGTSVTVSS VL: QIVLIQSPVIMSASPGEKVTITCSASSSVSYMHWFQQKPGTSPKLWIYSTSNLASGVPARFSGSGSGTSYSLTISRMEAEDAATYYCQQRSSYPPTFGAGTKLELK	–	–	binding result [4]: binds; binding result [5]: binds

Second part, led by results:

binding result [1]	binding result [3]	Binder	other results
–	binds	anti-PERP CDR-modified antibody ver.6 (antibody, V domains shown, Human chimeric antibody of IgG class; also called pKANTEX3411 CDR v6) VH: DVQLQESGPGLVKPSQSLSLTCTVTGFSITTEYAWNWIRQFPGNRLEWMGYIGYTGRTGYAPSLKSRISITRDTSKNQFFLQLNSVTTEDTATYYCTRMDYWGQGTSVTVSS VL: QIVLIQSPVIMSASPGEKVTITCSASSSVSYMHWFQQKPGTSPKLWIYSTSNLASGVPARFSGSGSGTSYSLTISRMEAEDAATYYCQQRSSYPPTFGAGTKLELK	–
–	binds	anti-PERP CDR-modified antibody ver.2 (antibody, V domains shown, Human chimeric antibody of IgG class; also called pKANTEX3411 CDR v2) VH: DVQLQESGPGLVKPSQSLSLTCTVTGFSITTEYAWNWIRQFPGNRLEWMGYIGYTGRTGYSPSLKSRISITRDTSKNQFFLQLNSVTTEDTATYYCTRMDYWGQGTSVTVSS VL: QIVLIQSPVIMSASPGEKVTITCSASSSVSYMHWFQQKPGTSPKLWIYSTSNLASGVPARFSGSGSGTSYSLTISRMEAEDAATYYCQQRSSYPPTFGAGTKLELK	–
–	binds	anti-PERP CDR-modified antibody ver.3 (antibody, V domains shown, Human chimeric antibody of IgG class; also called pKANTEX3411 CDR v3) VH: DVQLQESGPGLVKPSQSLSLTCTVTGFSITTEYAWNWIRQFPGNRLEWMGYIGYTGRTYYSPSLKSRISITRDTSKNQFFLQLNSVTTEDTATYYCTRMDYWGQGTSVTVSS VL: QIVLIQSPVIMSASPGEKVTITCSASSSVSYMHWFQQKPGTSPKLWIYSTSNLASGVPARFSGSGSGTSYSLTISRMEAEDAATYYCQQRSSYPPTFGAGTKLELK	–
–	binds	anti-PERP CDR-modified antibody ver.5 (antibody, V domains shown, Human chimeric antibody of IgG class; also called pKANTEX3411 CDR v5) VH: DVQLQESGPGLVKPSQSLSLTCTVTGFSITTEYAWNWIRQFPGNRLEWMGYIGYTGRTSYAPSLKSRISITRDTSKNQFFLQLNSVTTEDTATYYCTRMDYWGQGTSVTVSS VL: QIVLIQSPVIMSASPGEKVTITCSASSSVSYMHWFQQKPGTSPKLWIYSTSNLASGVPARFSGSGSGTSYSLTISRMEAEDAATYYCQQRSSYPPTFGAGTKLELK	–
